Measured values published in patent publication US20250043302A1, “MUTATED HYDROXYPHENYLPYRUVATE DIOXYGENASE POLYPEPTIDE, AND CODING GENE AND USE THEREOF” (BEIJING DABEINONG BIOTECHNOLOGY CO., LTD., priority 2021, published 2025).

Legend:
Assay type in all cases: in vivo
[1] = system: Arabidopsis thaliana T1 plants; assay: Topramezone tolerance of transgenic Arabidopsis thaliana T1 plants (spray, bleached leaf area grade, damage score); settings: 7 DAT, Table 4; for Classification and statistics of the grade of pesticide damage: Grade 0 / Classification and statistics of the grade of pesticide damage: Grade 1 / Classification and statistics of the grade of pesticide damage: Grade 2 / Classification and statistics of the grade of pesticide damage: Grade 3: number of plants; for Scores: pesticide damage score 0-100
Outline: (§1)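 T1 transformants selected by glufosinate; 18-day-old plants, with empty-vector and wild-type controls, sprayed with topramezone (25–200 g ai/ha), isoxaflutole (35–280 g ai/ha) or mesotrione (52.5–420 g ai/ha), water as 0×. Bleached leaf area fraction scored at 7 DAT as grades 0–3.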

[2] = system: Arabidopsis thaliana T1 plants; assay: Isoxaflutole tolerance of transgenic Arabidopsis thaliana T1 plants (spray, bleached leaf area grade, damage score); design: Scores (pesticide damage): scale not given here; settings: spray, Arabidopsis thaliana T1 plants; for Classification and statistics of the grade of pesticide damage: Grade 0 (number of plants) / Classification and statistics of the grade of pesticide damage: Grade 1 (number of plants) / Classification and statistics of the grade of pesticide damage: Grade 2 (number of plants) / Classification and statistics of the grade of pesticide damage: Grade 3 (number of plants): 16 plants
Outline: as §1

[3] = system: Arabidopsis thaliana T1 plants; assay: Mesotrione tolerance of transgenic Arabidopsis thaliana T1 plants (spray, bleached leaf area grade, damage score); design: Scores: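 damage score 0-100 computed as Σ(N×S)/(T×M)×100 over grades 0-3 with higher meaning more damage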; settings: Arabidopsis thaliana T1 plants; for Grade 0 (classification and statistics of the grade of pesticide damage; number of plants) / Grade 1 (classification and statistics of the grade of pesticide damage; number of plants) / Grade 2 (classification and statistics of the grade of pesticide damage; number of plants) / Grade 3 (classification and statistics of the grade of pesticide damage; number of plants): 16 plants
Outline: as §1

[4] = isoxaflutole 35 g ai/ha (0.5x field concentration)
[5] = isoxaflutole 70 g ai/ha (1x field concentration)

B1: NtHPPDm-F372A-02: nucleotide sequence encoding Nicotiana tabacum HPPD with F372A; vector DBN11751 (nucleic acid)
DNA: ATGGGGAAGCTGGAAACCGTCACTACCACCTCGGCGGCGGCTGCTGATGATTCATCGGAATTAACAACCAACTTCAAGTTGGTTGGTTTCAAAAATTTCATCAGAACAAACCCAAGGTCTGATTTCTTCTCCGTCAAGAGCTTCCACCACATTGAATTCTGGTGCGGTGACGCAACTAACACAGCGCGCCGCTTCTCATGGAGCCTAGGGATGCCAATTGCAGCTAAGAGTGATCTTTCAACAGGAAACAGCGTGCACGCCTCCTACCTCCTCCGGCCCGTAAGCGGTTCTTTACAGTTCCTGTTTACAGCACCATATTCACCTTCTATTTCGACTCCTAGTTCAGCTGCAATCCCATCTTTTTCCACATCTACACATAGGTCTTTCACTACAACACATGGACTGGGTGTTCGTGCCGTCGCCCTCGAGGTGGAGAATGCTTATACTGCCTTCAGTGCTTCTGTCTCCAGAGGCGCCAAGCCAATGTTTGAACCTGTGACAATTGATGAACAAGTAGCAATGGCTGAGGTTCATTTGTACGGCGATGTTGTGCTGCGATTTGTTTCTTATCTCAAGGACGCCGACAACCTGGTCTTCCTGCCGGGGTTTGAGGCCATGGATGAAACTGCTAGTTACAAAGAACTTGATTATGGAATACGGCGTTTGGATCATGCTGTGGGCAATGTTCCAGAACTCGGCCCGGTAGTTGATTACATCAAGAGGTTTACTGGATTTCATGAATTTGCAGAGTTTACCGCTGAAGATGTGGGAACTGCGGAAAGTGGGCTAAACTCCATGGTTCTTGCGAACAATGATGAGACTGTGCTCCTCCCTCTGAATGAGCCTGTTTATGGCACCAAAAGAAAATCTCAGATACAAACATATCTTGAGCATAATGAAGGAGCTGGGGTGCAGCACCTTGCTCTTGTTACTGAAGACATCTTTAAGACTTTGACAGAGATGAGGAAGAGAAGTGGAGTTGGAGGTTTTGAGTTCATGCCTTCCCCCCCGCCGACCTACTACAAGAATTTGAAGAACAGGGCTGGTGACGTCCTCTCAGACGAGCAGATTTTGGCTTGTGAGGAGCTTGGCATCTTGGTAGACCGGGACGACCAGGGGACGCTTCTCCAAATTGCCACAAAACCCGTCGGGGACCGCCCCACCATATTTATTGAGATCATCCAGAGGATAGGCTGCATGCTTAAAGATGGAAAAGGTCAAGTGTACCAGAAGGGTGGTTGTGGTGGGTTTGGCAAAGGAAATTTTTCTGAGCTGTTCAGAAGCATAGAAGAATATGAGAAGACACTGGAAGCAAAACAAGCAAATCAAGTTGCGGCCGCGTGA
modifications: NtHPPDm-F372A-02 Nucleotide Sequence
notes: vector DBN11751
[1]; topramezone 25 g ai/ha (1×)
  Classification and statistics of the grade of pesticide damage: Grade 0: 0
  Classification and statistics of the grade of pesticide damage: Grade 1: 6
  Classification and statistics of the grade of pesticide damage: Grade 2: 10
  Classification and statistics of the grade of pesticide damage: Grade 3: 0
  Scores: 54
  Resistance evaluation: poorly
[1]; topramezone 100 g ai/ha (4×)
  Classification and statistics of the grade of pesticide damage: Grade 0: 0
  Classification and statistics of the grade of pesticide damage: Grade 1: 0
  Classification and statistics of the grade of pesticide damage: Grade 2: 0
  Classification and statistics of the grade of pesticide damage: Grade 3: 16
  Scores: 100
  Resistance evaluation: non-resistant (non-resistant plants (scores 68-100))
[2]; [4]
  Resistance evaluation: Poorly
  Scores (pesticide damage): 54
  Classification and statistics of the grade of pesticide damage: Grade 0 (number of plants): 0
  Classification and statistics of the grade of pesticide damage: Grade 1 (number of plants): 6
  Classification and statistics of the grade of pesticide damage: Grade 2 (number of plants): 10
  Classification and statistics of the grade of pesticide damage: Grade 3 (number of plants): 0
[2]; [5]
  Resistance evaluation: Non-resistant
  Scores (pesticide damage): 100
  Classification and statistics of the grade of pesticide damage: Grade 0 (number of plants): 0
  Classification and statistics of the grade of pesticide damage: Grade 1 (number of plants): 0
  Classification and statistics of the grade of pesticide damage: Grade 2 (number of plants): 0
  Classification and statistics of the grade of pesticide damage: Grade 3 (number of plants): 16
[3]; mesotrione 52.5 g ai/ha
  Resistance evaluation: Poorly resistant
  Scores: 65
  Grade 0 (classification and statistics of the grade of pesticide damage; number of plants): 0
  Grade 1 (classification and statistics of the grade of pesticide damage; number of plants): 2
  Grade 2 (classification and statistics of the grade of pesticide damage; number of plants): 13
  Grade 3 (classification and statistics of the grade of pesticide damage; number of plants): 1
[3]; mesotrione 105 g ai/ha
  Resistance evaluation: Non-resistant
  Scores: 100
  Grade 0 (classification and statistics of the grade of pesticide damage; number of plants): 0
  Grade 1 (classification and statistics of the grade of pesticide damage; number of plants): 0
  Grade 2 (classification and statistics of the grade of pesticide damage; number of plants): 0
  Grade 3 (classification and statistics of the grade of pesticide damage; number of plants): 16
